Results reported in PMC4513882.

Target: SAMHD1 wt (human) (UniProt Q9Y3Z3)
Experiment: AFM

Chain of SAMHD1 wt (human) (Q9Y3Z3 whole entry): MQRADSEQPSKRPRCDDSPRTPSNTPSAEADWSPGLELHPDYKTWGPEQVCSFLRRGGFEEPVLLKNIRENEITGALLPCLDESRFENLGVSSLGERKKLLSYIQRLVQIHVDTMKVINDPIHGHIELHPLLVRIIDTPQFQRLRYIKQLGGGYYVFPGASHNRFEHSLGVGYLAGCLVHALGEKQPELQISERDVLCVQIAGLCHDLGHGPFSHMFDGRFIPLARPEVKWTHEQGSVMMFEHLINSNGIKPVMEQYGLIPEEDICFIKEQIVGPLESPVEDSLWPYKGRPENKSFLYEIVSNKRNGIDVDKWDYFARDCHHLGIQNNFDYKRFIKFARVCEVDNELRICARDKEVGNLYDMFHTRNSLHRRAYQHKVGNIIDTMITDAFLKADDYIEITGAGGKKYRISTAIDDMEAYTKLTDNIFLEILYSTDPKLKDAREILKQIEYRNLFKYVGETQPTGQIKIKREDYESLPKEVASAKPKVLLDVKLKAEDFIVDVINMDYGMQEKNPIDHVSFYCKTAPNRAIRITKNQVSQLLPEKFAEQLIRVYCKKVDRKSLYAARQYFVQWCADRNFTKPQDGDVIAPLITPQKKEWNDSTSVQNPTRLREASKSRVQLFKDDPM

“GGUUAUUCUCUUAUUUAUUCUAUCUAUCUCUCUCUUCUCUAUUUCCUCACAUCCUCUCUCACUCUCUAUCUCUAUCUCCUCUCUCUUCUCUCUCUCUCUCUCUCCUCUCUAUAUUCUUCUCUCUUCUCUCCUCUCCUCUCUCUCUCUCUUUAUUCUUCCACUUUUUUCCUUCUCACUUCUCUUCUUCUUUAUUCUUCUCAUCUCAUCUCAUCUCAUCUCAUCUCAUCUCAUCUCAUCUCAUCUCAUCUCAUCUCAUCUCAUCUCAUCUCAUCUCAUCUCAUCUCAUCUCAUCUCAUCUCAUCUCAGG / TGAGAAGAATAAAGAAGAAGAGAAGTGAGAAGGAAAAAAGTGGAAGAATAAAGAGAGAGAGAGAGGAGAGGAGAGAAGAGAGAAGAATATAGAGAGGAGAGAGAGAGAGAGAGAAGAGAGAGGAGATAGAGATAGAGAGTGAGAGAGGATGTGAGGAAATAGAGAAGAGAGAGATAGATAGAATAAATAAGAGAATAACC [AFM RNA, 200 bp RNA:DNA duplex with 102 nt ssRNA overhang]” gave a binding signal (% ssRNA ends bound) of 84.

Substance “AFM DNA, 295 bp duplex with 60 nt ssDNA overhang” has a binding signal (% ssDNA ends bound) of 26.
